We go through 1 substance from patent US20020173481A1.

For the test, the target named is endogenous GCSF receptor of 32Dcl3 cells. Description: cell-based or functional assay.

In turn, “hGCSF (from UniProt P09919 31-204) (ligand)” yielded a kinase activity of Bmx in 32Dcl3 cells of 1.7 fold.
